Assay results from publication PMC6178561.
Read-outs that look alike come from different tables or passages of the source. Values belong to the molecule of their own block, whether it stands above or below them.

What was measured:
[1] = target: HA-InR^intra (intracellular domain of insulin receptor including the kinase domain) (Drosophila) (UniProt P09208); experiment: proximity ligation
[2] = target: HA-InR^intra (intracellular domain of insulin receptor including the kinase domain) (Drosophila) (UniProt P09208); experiment: proximity ligation; remark: listed apart in the source

Chain of UniProt P09208 (P09208 1086-2144): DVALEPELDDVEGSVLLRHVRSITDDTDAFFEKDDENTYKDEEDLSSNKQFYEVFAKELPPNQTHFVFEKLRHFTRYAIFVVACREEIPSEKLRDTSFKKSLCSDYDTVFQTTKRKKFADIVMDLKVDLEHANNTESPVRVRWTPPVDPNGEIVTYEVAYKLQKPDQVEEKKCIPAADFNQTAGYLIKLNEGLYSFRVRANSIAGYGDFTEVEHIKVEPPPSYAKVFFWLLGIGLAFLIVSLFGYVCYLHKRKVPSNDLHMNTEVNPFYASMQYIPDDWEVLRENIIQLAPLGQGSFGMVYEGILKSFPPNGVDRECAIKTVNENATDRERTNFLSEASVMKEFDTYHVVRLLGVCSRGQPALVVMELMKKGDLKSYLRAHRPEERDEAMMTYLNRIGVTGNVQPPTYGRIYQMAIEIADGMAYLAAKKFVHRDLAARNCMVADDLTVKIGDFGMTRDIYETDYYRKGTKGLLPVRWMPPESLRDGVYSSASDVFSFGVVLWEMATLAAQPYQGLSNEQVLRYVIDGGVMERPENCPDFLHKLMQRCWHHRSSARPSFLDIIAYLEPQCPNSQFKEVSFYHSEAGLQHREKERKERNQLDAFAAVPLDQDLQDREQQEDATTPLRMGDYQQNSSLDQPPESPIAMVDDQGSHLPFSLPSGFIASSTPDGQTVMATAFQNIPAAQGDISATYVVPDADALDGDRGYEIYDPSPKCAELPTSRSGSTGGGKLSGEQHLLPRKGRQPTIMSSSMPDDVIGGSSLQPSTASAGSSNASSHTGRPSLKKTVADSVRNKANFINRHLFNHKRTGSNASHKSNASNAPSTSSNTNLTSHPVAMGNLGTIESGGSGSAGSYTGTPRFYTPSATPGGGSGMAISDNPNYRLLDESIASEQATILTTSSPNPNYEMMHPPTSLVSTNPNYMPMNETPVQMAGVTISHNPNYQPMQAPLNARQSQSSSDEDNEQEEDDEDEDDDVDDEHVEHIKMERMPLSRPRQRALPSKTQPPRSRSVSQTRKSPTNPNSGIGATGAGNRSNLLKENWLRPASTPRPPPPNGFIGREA

PLA foci per cell (average) (PLA foci per cell) [1]: 12.8 | percent of cells with PLA signal [1]: 90.9% | percent of cells with moderate PLA signals (11-30 foci) [1]: 41.8% | percent of cells with strong PLA signals (>30 foci) [1]: 12.7% | percent of cells with weak PLA signals (≤10 foci) [1]: 36.4%
Molecule: Myc-Hsp83 (heat shock protein 83) (from UniProt P02828 1-717) (natural protein)

percent of cells with PLA signal [2]: 86.8% | percent of cells with moderate PLA signals [2]: 31.4% | percent of cells with strong PLA signals [2]: 4.1% | percent of cells with weak PLA signals [2]: 51.3%
B1: Myc-Cdc37 (cell division cycle 37) (natural protein)
chain: MVDYSKWKNIEISDDEDDTHPNIDTPSLFRWRHQARVERMAEMDHEKDELKKKRQSYQARLMDVKERISKKDGDEEALKKELEKIEAEGKELDRIESEMIKKEKKTPWNVDTISKPGFEKTVINKKAGRKPDENLSEEEREQRMKQFVKENEKLCQQYGMLRKYDDSKRFLQEHLHLVGEETANYLVIWSINLEMEEKHELMAHVAHQCICMQYILELAKQLDVDPRACVSSFFSKIQHCHPEYRAQFDSEIEGFKGRIQKRAQEKIQEAIAQAEEEERKERLGPGGLDPADVFESLPDELKACFESRDVELLQKTIAAMPVDVAKLHMKRCVDSGLWVPNAADLEGDKKEEDDSDDVAGGEEKTDDAKSESAAKEEPIYTGVSTEDVD
